Results published in patent publication US20260216242A1 (ALMAC DISCOVERY, published 2026).

Columns and labels:
[1] = target: T1, human ALPL on CHO cells (human, UniProt P05186 18-501); test: flow cytometry, CHO cells stably expressing human ALPL; PDC detected with FITC anti-human Ab
T1 construct: whole, on cells; also called CHO-ALPL
T1 sequence (looked up): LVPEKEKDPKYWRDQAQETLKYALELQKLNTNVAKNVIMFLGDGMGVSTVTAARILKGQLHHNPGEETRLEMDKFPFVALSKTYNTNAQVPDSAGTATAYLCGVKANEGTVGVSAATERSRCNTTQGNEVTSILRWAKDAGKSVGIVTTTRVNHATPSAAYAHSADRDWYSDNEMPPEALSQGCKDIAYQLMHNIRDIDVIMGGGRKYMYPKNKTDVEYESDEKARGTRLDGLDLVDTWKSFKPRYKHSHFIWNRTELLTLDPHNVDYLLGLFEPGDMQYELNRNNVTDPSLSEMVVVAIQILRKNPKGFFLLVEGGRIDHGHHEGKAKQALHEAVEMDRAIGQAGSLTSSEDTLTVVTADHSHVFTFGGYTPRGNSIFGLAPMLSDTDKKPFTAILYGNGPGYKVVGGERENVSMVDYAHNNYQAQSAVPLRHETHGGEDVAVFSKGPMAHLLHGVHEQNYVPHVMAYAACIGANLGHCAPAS
Protocol: Biparatopic VHH-hFc drug conjugates were assessed for human ALPP, ALPPL2, ALPI and ALPL cell-surface binding by flow cytometry. Binders were screened on CHO cells stably expressing human ALPP, ALPPL2, ALPI or ALPL.
Cell surface binding of test agents to hALPP isoforms was characterized in four CHO-ALPP isoform transfectant cell lines (CHO-ALPP, CHO-ALPPL2, CHO-ALPI and CHO-ALPL) and the resulting KDapp values determined. Adherent cells were detached from tissue culture flasks by incubating with 0.1% EDTA/PBS solution at 37° C. for […] or until cells detached easily. Cells were re-suspended in ice-cold PBS/2% FCS in 15 ml tubes and centrifuged at 1700 rpm for 5 mins at 4° C. Supernatant was removed and the cell pellet re-suspended in PBS/2% FCS. […] Cells were incubated with 100 μl of test agents at a range of concentrations, plus controls for 1 hr on ice. The sample plate was centrifuged at 1700 rpm for 5 mins at 4° C. The supernatant was removed, and a wash performed by re-suspending the cell pellets in 0.25 mL of ice-cold PBS/2% FCS using a multichannel pipette. Samples were again centrifuged at 1700 rpm for 5 min at 4° C. Supernatant was removed and two further washes performed as described. After the final wash and centrifugation step, excess liquid was removed by blotting the plate on tissue paper. Binding of VHH-hFc agents was determined by adding 100 μl of Fitc-anti-human Ab (ThermoFisher) and incubating for 30 mins on ice in the dark. Wash steps were performed as described previously. All cell pellets were finally re-suspended in 0.28 ml of ice-cold PBS/2% FCS and left on ice in the dark prior to analysis on a Merck-Millipore Guava EasyCyte HT or Thermo Fisher Attune N×T flow cytometer.

[2] = target: T2, ALPI His homodimer (human, UniProt P09923 20-503); test: ELISA, antigen coated
T2 construct: Whole entry with His tag; used in ELISA and BLI; also called hALPI
T2 sequence: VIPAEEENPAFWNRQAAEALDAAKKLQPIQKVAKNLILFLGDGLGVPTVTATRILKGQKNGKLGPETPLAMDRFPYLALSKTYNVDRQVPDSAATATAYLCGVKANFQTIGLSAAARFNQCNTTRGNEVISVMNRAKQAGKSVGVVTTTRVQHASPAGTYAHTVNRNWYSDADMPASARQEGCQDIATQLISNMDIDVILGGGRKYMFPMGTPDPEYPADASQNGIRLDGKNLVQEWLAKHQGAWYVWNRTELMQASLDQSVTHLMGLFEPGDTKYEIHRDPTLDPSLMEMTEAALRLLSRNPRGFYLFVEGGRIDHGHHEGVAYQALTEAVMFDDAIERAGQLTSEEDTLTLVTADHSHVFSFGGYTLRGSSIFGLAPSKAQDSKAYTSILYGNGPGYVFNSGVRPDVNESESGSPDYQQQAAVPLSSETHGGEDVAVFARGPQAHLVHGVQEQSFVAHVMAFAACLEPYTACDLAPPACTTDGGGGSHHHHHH
Excerpt: ELISA was used to test the binding and specificity of the VHHs. […] Anti-Llama—HRP antibody was used for detection.

[3] = target: T3, Human ALPL (leucine zipper) (human); test: BLI, antigen immobilised
T3 construct: Whole entry: fused with a cysteine stabilised leucine zipper and His tag; also called hALPL
T3 chain: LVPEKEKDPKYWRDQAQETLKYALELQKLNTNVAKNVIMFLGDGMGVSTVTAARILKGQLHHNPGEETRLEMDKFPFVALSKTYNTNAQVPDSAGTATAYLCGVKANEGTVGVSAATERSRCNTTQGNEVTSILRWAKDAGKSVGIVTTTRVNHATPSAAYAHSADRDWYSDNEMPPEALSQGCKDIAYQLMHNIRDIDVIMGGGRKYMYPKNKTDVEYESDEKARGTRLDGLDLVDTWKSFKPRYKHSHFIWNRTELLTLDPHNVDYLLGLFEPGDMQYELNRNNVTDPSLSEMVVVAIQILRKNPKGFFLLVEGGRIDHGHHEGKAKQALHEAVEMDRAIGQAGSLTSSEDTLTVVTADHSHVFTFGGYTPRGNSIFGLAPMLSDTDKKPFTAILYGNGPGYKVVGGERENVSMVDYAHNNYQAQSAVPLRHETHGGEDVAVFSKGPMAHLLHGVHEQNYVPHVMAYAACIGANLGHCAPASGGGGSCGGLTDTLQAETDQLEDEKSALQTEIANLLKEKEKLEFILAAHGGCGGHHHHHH
Protocol: (§1) Binding kinetics were determined using the Biolayer Interferometry (BLI) Octet K2 system (Sartorius). […] All assays were conducted in PBS with a plate temperature of 25° C. Ka (M⁻¹s⁻¹), Kd (s⁻¹) and KD (nM) values were determined using Octet Data Analysis High Throughput software (ForteBio) for Biolayer Interferometry.

[4] = target: T4, Human ALPP (leucine zipper) (human); test: BLI, antigen immobilised
T4 construct: Whole entry: ALPP fused with a cysteine stabilised leucine zipper and His tag; also called hALPP
T4 chain: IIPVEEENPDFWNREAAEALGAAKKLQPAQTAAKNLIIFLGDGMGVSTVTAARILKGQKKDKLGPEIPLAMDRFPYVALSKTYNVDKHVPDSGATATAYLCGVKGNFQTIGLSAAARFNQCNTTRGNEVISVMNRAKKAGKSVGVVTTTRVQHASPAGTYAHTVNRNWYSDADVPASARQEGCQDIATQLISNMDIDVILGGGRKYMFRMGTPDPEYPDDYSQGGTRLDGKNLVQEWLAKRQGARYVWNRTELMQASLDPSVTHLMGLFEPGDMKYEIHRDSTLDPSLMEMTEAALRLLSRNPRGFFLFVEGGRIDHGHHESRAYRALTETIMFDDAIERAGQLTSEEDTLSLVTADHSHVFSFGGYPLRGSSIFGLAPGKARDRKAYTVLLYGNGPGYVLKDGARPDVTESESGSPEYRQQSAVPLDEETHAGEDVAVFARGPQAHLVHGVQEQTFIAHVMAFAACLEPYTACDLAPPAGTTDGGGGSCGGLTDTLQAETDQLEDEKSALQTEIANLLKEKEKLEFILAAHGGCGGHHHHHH
Protocol: as §1

Binder | binding result [1] | binding result [2] | binding result [3] | kon [4]
A06-E06 hFc-vcPAB-MMAE [G4S]3 (Fc fusion, DAR 4, MC-vc-PAB-MMAE on Cys 239 and Cys 442 (EU numbering), Biparatopic drug conjugate, DAR 4; also called #639) chain 1: QVHLVESGGGLVQAGGSLRLSCAASGRTFLSMGWFRQAPGKEREFVAAISWTGGSTGYADSVKGRFTISRESDKETMYLQMNSLKPEDTAVYYCAARGDVYYGGDDATRYKYWGQGTQVTVSSGGGGSGGGGSGGGGSEPKSSDKTHTCPPCPAPELLGGPCVFLFPPKPKDTLMISRTPEVTCVVVDVSHEDPEVKFNWYVDGVEVHNAKTKPREEQYNSTYRVVSVLTVLHQDWLNGKEYKCKVSNKALPAPIEKTISKAKGQPREPQVYTLPPSRDELTKNQVSLYCLVKGFYPSDIAVEWESNGQPENNYKTTPPVLDSDGSFFLYSKLTVDKSRWQQGNVFSCSVMHEALHNHYTQKSLCLSPGK chain 2: QVHLVESGGGLVQAGGSLRLSCAASRRSFSEYAMGWFRQAPGKEREFVAAIGWSGVIEYADSVKGRFTISRDNAKDTVYLQMNSLKPEDTAVYYCAAGLGIRVVSQTPAYWGQGTQVTVSSGGGGSGGGGSGGGGSEPKSSDKTHTCPPCPAPELLGGPCVFLFPPKPKDTLMISRTPEVTCVVVDVSHEDPEVKFNWYVDGVEVHNAKTKPREEQYNSTYRVVSVLTVLHQDWLNGKEYKCKVSNKALPAPIEKTISKAKGQPREPQVYTLPPSRDELTKNQVSLTCLVKGFYPSDIAVEWESNGQPENNYKTTPPVLDSDGSFFLTSKLTVDKSRWQQGNVFSCSVMHEALHNHYTQKSLCLSPGK | no binding (tested: 350 nM) |  |  | 
A06-E10 hFc-vcPAB-MMAE [G4S]3 (Fc fusion, DAR 4, MC-vc-PAB-MMAE on Cys 239 and Cys 442 (EU numbering), Biparatopic drug conjugate, DAR 4) chain 1: QVHLVESGGGLVQAGGSLRLSCAASGRTFLSMGWFRQAPGKEREFVAAISWTGGSTGYADSVKGRFTISRESDKETMYLQMNSLKPEDTAVYYCAARGDVYYGGDDATRYKYWGQGTQVTVSSGGGGSGGGGSGGGGSEPKSSDKTHTCPPCPAPELLGGPCVFLFPPKPKDTLMISRTPEVTCVVVDVSHEDPEVKFNWYVDGVEVHNAKTKPREEQYNSTYRVVSVLTVLHQDWLNGKEYKCKVSNKALPAPIEKTISKAKGQPREPQVYTLPPSRDELTKNQVSLYCLVKGFYPSDIAVEWESNGQPENNYKTTPPVLDSDGSFFLYSKLTVDKSRWQQGNVFSCSVMHEALHNHYTQKSLCLSPGK chain 2: QVQLVESGGGLVQAGGSLRLSCAVSGRALSDYNIGWFRQAPGKEREFVARKTWDGSSTRYDDSVKGRFTVSIEDAKNTAYLQMSSLKTEDTAVYYCAAGRYSRARGWEYDYWGQGTQVTVSSGGGGSGGGGSGGGGSEPKSSDKTHTCPPCPAPELLGGPCVFLFPPKPKDTLMISRTPEVTCVVVDVSHEDPEVKFNWYVDGVEVHNAKTKPREEQYNSTYRVVSVLTVLHQDWLNGKEYKCKVSNKALPAPIEKTISKAKGQPREPQVYTLPPSRDELTKNQVSLTCLVKGFYPSDIAVEWESNGQPENNYKTTPPVLDSDGSFFLTSKLTVDKSRWQQGNVFSCSVMHEALHNHYTQKSLCLSPGK | no binding (tested: 350 nM) |  |  | 
A06-F05 hFc-vcPAB-MMAE [G4S]3 (Fc fusion, DAR 4, MC-vc-PAB-MMAE on Cys 239 and Cys 442 (EU numbering), Biparatopic drug conjugate, DAR 4) chain 1: QVHLVESGGGLVQAGGSLRLSCAASGRTFLSMGWFRQAPGKEREFVAAISWTGGSTGYADSVKGRFTISRESDKETMYLQMNSLKPEDTAVYYCAARGDVYYGGDDATRYKYWGQGTQVTVSSGGGGSGGGGSGGGGSEPKSSDKTHTCPPCPAPELLGGPCVFLFPPKPKDTLMISRTPEVTCVVVDVSHEDPEVKFNWYVDGVEVHNAKTKPREEQYNSTYRVVSVLTVLHQDWLNGKEYKCKVSNKALPAPIEKTISKAKGQPREPQVYTLPPSRDELTKNQVSLYCLVKGFYPSDIAVEWESNGQPENNYKTTPPVLDSDGSFFLYSKLTVDKSRWQQGNVFSCSVMHEALHNHYTQKSLCLSPGK chain 2: QVQLVESGGGLVQAGGSLRLSCAASGRAFGDYNIGWFRQAPGKEREFVARRTWDGSSTRYDDSVKGRFTVSIDNAKNTAYLQMNSLKTEDTAVYYCAAGRYSRVRGWEYDYWGQGTQVTVSSGGGGSGGGGSGGGGSEPKSSDKTHTCPPCPAPELLGGPCVFLFPPKPKDTLMISRTPEVTCVVVDVSHEDPEVKFNWYVDGVEVHNAKTKPREEQYNSTYRVVSVLTVLHQDWLNGKEYKCKVSNKALPAPIEKTISKAKGQPREPQVYTLPPSRDELTKNQVSLTCLVKGFYPSDIAVEWESNGQPENNYKTTPPVLDSDGSFFLTSKLTVDKSRWQQGNVFSCSVMHEALHNHYTQKSLCLSPGK | no binding (tested: 350 nM) |  |  | 
B11 (VHH, not shown: small tags and cut ends) VHH: QVHLVESGGGSVQAGGSLRLSCAASGPSLSNYAMGWFRQAPGKEREFVAGISWGGGRTSYTDSVKGRFTISRDNAKNTVYLQMNNLKPEDTGVYYCAGRYGRGRNVEYEYDYWGQGTQVTVSS |  | no binding (tested: 500 ng VHH) | no binding | 213000 M⁻¹ s⁻¹
